Laboratory results: patent US20190315845A1 (ANNEXON, published 2019)
Where two headings read alike, the source gives them in different places.

Assays:
human C1q [1] = target: T1, human C1q (human, UniProt P02745 23-245; P02746 28-253; P02747 29-245); assay: competition ELISA on plate-bound human C1q against biotinylated mouse M1 antibody (0.02 µg/ml); bound biotin-M1 read as OD450
T1 construct: Purified human C1q protein (plate-coated in ELISA, ligand or analyte in SPR, in human serum in CH50); also called hC1q; complement factor C1q
T1 sequence (P02745 23-245 limits assumed, chain 1 of 3): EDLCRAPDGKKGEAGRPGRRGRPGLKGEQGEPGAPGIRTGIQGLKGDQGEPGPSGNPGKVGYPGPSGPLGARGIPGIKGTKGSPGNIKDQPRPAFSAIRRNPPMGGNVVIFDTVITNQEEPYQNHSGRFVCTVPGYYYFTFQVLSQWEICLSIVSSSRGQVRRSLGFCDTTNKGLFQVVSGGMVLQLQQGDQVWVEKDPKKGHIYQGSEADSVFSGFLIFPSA
T1 sequence (P02746 28-253 limits assumed, chain 2 of 3): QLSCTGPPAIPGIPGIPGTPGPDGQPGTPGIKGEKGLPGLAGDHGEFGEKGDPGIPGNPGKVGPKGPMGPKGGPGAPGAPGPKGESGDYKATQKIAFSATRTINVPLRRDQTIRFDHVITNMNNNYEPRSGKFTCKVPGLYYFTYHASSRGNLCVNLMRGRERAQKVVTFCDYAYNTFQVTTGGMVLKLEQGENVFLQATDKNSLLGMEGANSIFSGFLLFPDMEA
T1 sequence (P02747 29-245 limits assumed, chain 3 of 3): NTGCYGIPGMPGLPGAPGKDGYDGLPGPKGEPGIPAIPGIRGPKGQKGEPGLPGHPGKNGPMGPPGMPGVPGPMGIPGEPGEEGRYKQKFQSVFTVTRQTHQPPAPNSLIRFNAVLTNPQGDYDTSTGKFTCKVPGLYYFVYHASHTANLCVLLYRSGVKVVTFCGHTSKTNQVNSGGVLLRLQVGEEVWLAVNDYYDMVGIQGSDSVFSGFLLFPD
Source text: (§1) FIG. 4A, FIG. 4B, FIG. 4C, and FIG. 4D depicts competition ELISA assays for human C1q. A dilution series of purified humanized anti-C1q antibodies were competed against a fixed concentration of biotinylated monoclonal antibody M1 for binding to human C1q. Bound biotinylated M1 antibody was detected using streptavidin-peroxidase conjugate and TMB substrate. FIG. 4A depicts the results with the humanized antibodies VH1/Vκ1, VH1/Vκ2, and VH1/Vκ3. FIG. 4B depicts the results with the humanized antibodies VH1/Vκ4, VH2/Vκ1, VH2/Vκ2, VH2/Vκ3, and VH2/Vκ4. FIG. 4C depicts the results with the humanized antibodies VH3/Vκ1, VH3/Vκ2, VH3/Vκ3, and VH3/Vκ4. FIG. 4D depicts the results with the humanized antibodies VH4/Vκ1, VH4/Vκ2, […], and VH4/Vκ4.
(§2) The binding of humanized M1 variants to human C1q was analyzed by competition ELISA. A three-fold dilution series of test antibody (5 μg/ml to 0.002 μg/ml) was premixed with a constant concentration of biotinylated mouse M1 antibody (0.02 μg/ml, final concentration) before incubating for 1 hour at 37° C. with shaking on plates pre-coated with human C1q at 1.0 μg/ml. The binding of mouse M1 antibody was detected with streptavidin-peroxidase conjugate (Sigma-Aldrich cat. no. 55512) and TMB (3,3′,5,5′-tetramethylbenzidine) substrate (Thermo Scientific cat. no. 34029). The reaction was stopped with 1M HCl, absorbance read at 450 nm on a Dynex Technologies MRX TC II plate reader and the binding curves plotted.

human C1q [2] = target: T1, human C1q; assay: as above; remark: listed apart in the source
Source text: as §1, §2

mouse C1q [3] = target: T2, mouse C1q (mouse, UniProt P98086 23-245; P14106 26-253; Q02105 30-246); assay: competition ELISA, plate-coated mouse C1q; competitor biotinylated chimeric M1 (0.03 µg/ml); IC50 normalised to chimeric M1 (reference itself)
T2 construct: Purified mouse C1q protein; also called mC1q
T2 sequence (P98086 23-245 limits assumed, chain 1 of 3): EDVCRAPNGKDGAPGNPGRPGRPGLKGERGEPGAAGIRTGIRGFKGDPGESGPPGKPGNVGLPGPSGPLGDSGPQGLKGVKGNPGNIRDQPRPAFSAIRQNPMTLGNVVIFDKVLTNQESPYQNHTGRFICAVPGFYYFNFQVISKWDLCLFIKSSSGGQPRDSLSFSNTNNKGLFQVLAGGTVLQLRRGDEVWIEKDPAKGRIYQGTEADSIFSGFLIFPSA
T2 sequence (P14106 26-253 limits assumed, chain 2 of 3): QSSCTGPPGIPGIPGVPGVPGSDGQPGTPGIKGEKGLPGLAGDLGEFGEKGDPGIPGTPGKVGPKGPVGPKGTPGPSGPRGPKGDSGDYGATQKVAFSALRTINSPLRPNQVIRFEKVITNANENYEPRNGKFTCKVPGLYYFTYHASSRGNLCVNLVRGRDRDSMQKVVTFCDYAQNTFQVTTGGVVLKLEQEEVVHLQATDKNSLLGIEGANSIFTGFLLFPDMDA
T2 sequence (Q02105 30-246 limits assumed, chain 3 of 3): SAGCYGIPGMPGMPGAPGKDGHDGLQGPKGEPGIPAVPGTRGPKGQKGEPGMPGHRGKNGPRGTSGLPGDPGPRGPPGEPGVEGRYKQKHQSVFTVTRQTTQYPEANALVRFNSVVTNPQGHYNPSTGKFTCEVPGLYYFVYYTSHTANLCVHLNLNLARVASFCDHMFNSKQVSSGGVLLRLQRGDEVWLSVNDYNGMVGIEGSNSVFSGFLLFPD
Procedure: (§3) The binding of humanized M1 variants to mouse C1q was analyzed by competition ELISA on four selected antibodies, VH1/Vκ1, VH3/Vκ1, VH3/Vκ4 and VH4/Vκ3. An irrelevant IgG4 (S241P L248E) antibody was also included as a binding control. A three-fold dilution series of test antibody (100 μg/ml to 0.046 μg/ml) was premixed with a constant concentration of biotinylated chimeric M1 antibody (0.03 μg/ml, final concentration) before incubating for 1 hour at 37° C. with shaking on plates pre-coated with mouse C1q at 5.0 μg/ml. The binding of chimeric M1 antibody was detected with streptavidin-peroxidase conjugate (Sigma-Aldrich cat. no. S5512) and TMB substrate (Thermo Scientific cat. no. 34029). The reaction was stopped with 1M HCl, absorbance read at 450 nm on a Dynex Technologies MRX TC II plate reader and the binding curves plotted.
(§4) The binding curves were used to calculate IC₅₀ values for each antibody normalized to the IC₅₀ of chimeric M1 (Table 2).

human C1q [4] = target: T1, human C1q; assay: competition ELISA, plate-coated human C1q; competitor biotinylated mouse M1 (0.02 µg/ml); IC50 normalised to chimeric M1 (reference itself)
Procedure: as §2
(§5) The binding curves were used to calculate IC₅₀ values (concentration of test antibody that inhibits labelled competitor binding by 50%) for each antibody normalized to the IC₅₀ of chimeric M1 and antibody yields from NS0 transfectants were also compared (Table 1).

human C1q [5] = target: T1, human C1q; assay: competition ELISA on plate-bound human C1q against biotinylated mouse M1 antibody (0.02 µg/ml); bound biotin-M1 read as OD450; remark: listed apart in the source
Source text: as §1, §2

mouse C1q [6] = target: T2, mouse C1q; assay: competition ELISA on plate-bound mouse C1q against biotinylated chimeric M1 antibody (0.03 µg/ml); bound biotin-chimeric M1 read as OD450
Procedure: as §3, §4

human C1q [7] = target: T1, human C1q; assay: competition ELISA on plate-bound human C1q against biotinylated mouse M1 antibody (0.02 µg/ml); bound biotin-M1 read as OD450; remark: listed apart in the source
Source text: as §1, §2

human C1q [8] = target: T1, human C1q; assay: SPR Biacore T200, heterogeneous ligand model, kd1; hC1q immobilised (ligand), IgG analyte
human C1q [9] = target: T1, human C1q; assay: SPR Biacore T200, heterogeneous ligand model, ka2; hC1q immobilised (ligand), IgG analyte
mouse C1q [10] = target: T2, mouse C1q; assay: competition ELISA, plate-coated mouse C1q; competitor biotinylated chimeric M1 (0.03 µg/ml); IC50 normalised to chimeric M1
Procedure: as §3, §4

rat C1q = rat C1q (rat, UniProt P31720 23-245; P31721 26-253; P31722 29-245); assay: cell-based or functional assay
Sequence of rat C1q (P31720 23-245 limits assumed, chain 1 of 3): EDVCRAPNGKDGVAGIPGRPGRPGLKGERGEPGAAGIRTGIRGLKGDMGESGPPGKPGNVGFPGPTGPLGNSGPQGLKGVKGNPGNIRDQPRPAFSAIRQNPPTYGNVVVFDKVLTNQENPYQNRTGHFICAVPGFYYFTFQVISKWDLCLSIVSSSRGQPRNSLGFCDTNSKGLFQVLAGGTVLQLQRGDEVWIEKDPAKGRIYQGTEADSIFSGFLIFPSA
Sequence of rat C1q (P31721 26-253 limits assumed, chain 2 of 3): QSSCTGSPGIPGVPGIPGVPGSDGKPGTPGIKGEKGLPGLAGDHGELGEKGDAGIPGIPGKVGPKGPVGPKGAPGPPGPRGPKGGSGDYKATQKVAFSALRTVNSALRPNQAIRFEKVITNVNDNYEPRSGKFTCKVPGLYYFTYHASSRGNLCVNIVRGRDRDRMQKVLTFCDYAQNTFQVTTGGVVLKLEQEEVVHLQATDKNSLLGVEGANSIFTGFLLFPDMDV
Sequence of rat C1q (P31722 29-245 limits assumed, chain 3 of 3): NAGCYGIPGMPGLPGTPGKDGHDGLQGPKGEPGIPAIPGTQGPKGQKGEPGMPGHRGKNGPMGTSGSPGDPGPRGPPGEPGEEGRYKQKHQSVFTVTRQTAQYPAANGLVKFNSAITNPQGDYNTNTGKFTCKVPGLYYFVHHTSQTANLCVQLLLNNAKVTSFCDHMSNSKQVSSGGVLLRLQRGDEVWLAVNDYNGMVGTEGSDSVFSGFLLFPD

human C1q [11] = target: T1, human C1q; assay: cell-based or functional assay
human C1q [12] = target: T1, human C1q; assay: SPR Biacore T200, 1:1 model; IgG immobilised (ligand), hC1q analyte; mean of 2 analyses
human C1q [13] = target: T1, human C1q; assay: SPR Biacore T200, heterogeneous ligand model, ka1; hC1q immobilised (ligand), IgG analyte
human C1q [14] = target: T1, human C1q; assay: competition ELISA, plate-coated human C1q; competitor biotinylated mouse M1 (0.02 µg/ml); IC50 normalised to chimeric M1
Procedure: as §2, §5

human C1q [15] = target: T1, human C1q; assay: SPR Biacore T200, heterogeneous ligand model, KD2; hC1q immobilised (ligand), IgG analyte
human C1q [16] = target: T1, human C1q; assay: SPR Biacore T200, heterogeneous ligand model, kd2; hC1q immobilised (ligand), IgG analyte
human C1q [17] = target: T1, human C1q; assay: SPR Biacore T200, 1:1 model, single cycle kinetics; hC1q immobilised (ligand), IgG analyte
human C1q [18] = target: T1, human C1q; assay: SPR Biacore T200, 1:1 model; IgG immobilised (ligand), hC1q analyte; analysis 1
human C1q [19] = target: T1, human C1q; assay: SPR Biacore T200, 1:1 model; IgG immobilised (ligand), hC1q analyte; analysis 2
human C1q [20] = target: T1, human C1q; assay: SPR Biacore T200, heterogeneous ligand model, KD1; hC1q immobilised (ligand), IgG analyte

Row | Binder | IC50 (read off the curve) (human C1q [1]) [µg/mL] | IC50 (read off the curve) (human C1q [2]) [µg/mL] | IC50 (read off the curve) (mouse C1q [6]) [µg/mL] | IC50 (read off the curve) (human C1q [7]) [µg/mL] | Relative IC50 (mouse C1q [10]) | amount of antibody required to inhibit approximately 50% to approximately 80% of rat CH50 hemolysis (rat C1q) [ng] | amount of antibody required to inhibit 50% of human CH50 hemolysis (human C1q [11]) [ng] | Relative IC50 (human C1q [14]) | other results
1 | chimeric M1 antibody (antibody, human IgG4, Murine M1 V regions with human IgG4 (S241P L248E) and human kappa constant regions, expressed in NS0; also called 3E2; not shown: human kappa light chain constant region) heavy: not shown light: DVQITQSPSYLAASPGETITINCRASKSINKYLAWYQEKPGKTNKLLIYSGSTLQSGIPSRFSGSGSGTDFTLTISSLEPEDFAMYYCQQHNEYPLTFGAGTKLELK | ~0.3 | ~0.3 | ~3 | ~0.3 |  |  |  |  | Relative IC50 (mouse C1q [3]): 1 ratio to chimeric M1; Relative IC50 (human C1q [4]): 1 ratio to chimeric M1; IC50 (read off the curve) (human C1q [5]): ~0.3 µg/mL
2 | humanized anti-C1q antibody VH3/Vκ3 (full-length IgG) (antibody, Full-length human IgG4 (S241P L248E) / human kappa, expressed in NS0; also called IgG VH3/Vκ3; IgG-VH3/Vκ3; not shown: human kappa light chain constant region) heavy: not shown light: DVQITQSPSSLSASLGERATINCRASKSINKYLAWYQQKPGKAPKLLIYSGSTLQSGIPARFSGSGSGTDFTLTISSLEPEDFAMYYCQQHNEYPLTFGQGTKLEIK |  |  | ~5 | ~0.2 | 1.5 ratio to chimeric M1 | ~60 | ~60 | 0.63 ratio to chimeric M1 | koff (human C1q [8]): 4.6e-06 s⁻¹; kon (human C1q [9]): 16000 M⁻¹ s⁻¹; Kd (human C1q [12]): 5.8 pM; koff (human C1q [12]): 5.8e-06 s⁻¹; kon (human C1q [12]): 1e+06 M⁻¹ s⁻¹; kon (human C1q [13]): 200000 M⁻¹ s⁻¹; Kd (human C1q [15]): 7300 pM; koff (human C1q [16]): 1.1e-07 s⁻¹; Kd (human C1q [17]): 7.9 pM; koff (human C1q [17]): 3.1e-07 s⁻¹; kon (human C1q [17]): 39000 M⁻¹ s⁻¹; Kd (human C1q [18]): 6.7 pM; koff (human C1q [18]): 6.4e-06 s⁻¹; kon (human C1q [18]): 960000 M⁻¹ s⁻¹; Kd (human C1q [19]): 4.9 pM; koff (human C1q [19]): 5.1e-06 s⁻¹; kon (human C1q [19]): 1.1e+06 M⁻¹ s⁻¹; Kd (human C1q [20]): 22700 pM
3 | humanized anti-C1q antibody VH4/Vκ3 (antibody, human IgG4, Full-length human IgG4 (S241P L248E) / human kappa, expressed in NS0, Protein A purified; also called 1D3; not shown: human kappa light chain constant region) heavy: not shown light: DVQITQSPSSLSASLGERATINCRASKSINKYLAWYQQKPGKAPKLLIYSGSTLQSGIPARFSGSGSGTDFTLTISSLEPEDFAMYYCQQHNEYPLTFGQGTKLEIK | ~0.2 |  | ~6 |  | 1.84 ratio to chimeric M1 | ~60 | ~60 | 0.77 ratio to chimeric M1 | 
4 | humanized anti-C1q antibody VH1/Vκ1 (antibody, human IgG4, Full-length human IgG4 (S241P L248E) / human kappa, expressed in NS0, Protein A purified; also called 2B12; not shown: human kappa light chain constant region) heavy: not shown light: DVQITQSPSYLAASLGERATINCRASKSINKYLAWYQQKPGKTNKLLIYSGSTLQSGIPARFSGSGSGTDFTLTISSLEPEDFAMYYCQQHNEYPLTFGQGTKLEIK |  | ~0.3 | ~5 |  | 1.62 ratio to chimeric M1 | ~60 | ~60 | 0.9 ratio to chimeric M1 | 
5 | humanized anti-C1q antibody VH3/Vκ4 (antibody, human IgG4, Full-length human IgG4 (S241P L248E) / human kappa, expressed in NS0, Protein A purified; also called 3F1; not shown: human kappa light chain constant region) heavy: not shown light: DIQLTQSPSSLSASLGERATINCRASKSINKYLAWYQQKPGKAPKLLIYSGSTLQSGIPARFSGSGSGTDFTLTISSLEPEDFAMYYCQQHNEYPLTFGQGTKLEIK |  |  | ~6 | ~0.3 | 1.91 ratio to chimeric M1 | ~60 |  | 0.83 ratio to chimeric M1 | 
